Molecular target: human epidermal growth factor receptor expressed on M3-EGFR cells (human) (UniProt P00533)

Row | Substance | average fluorescence of M3-EGFR cell nuclei (anti-His-Tag Alexa Fluor 647) after 2 h incubation with 300 nM MNT (Relative units (RU))
1 | EGF-DTox-HMP-NLS-[Nrf2-peptide] modular nanotransporter | 44.7
2 | DTox-HMP-NLS-EGF modular nanotransporter | 44.3

Source: PMC9697344
